What was measured:
Stability in human serum = format: in vitro ADME; conditions: fresh human serum (100 μl to 20 μl reaction mixture), 37 °C, 4 h, acetonitrile/ethanol precipitation, RP-HPLC
Description: Serum stability of the peptide was also determined following addition of 100 μl of fresh human serum to 20 μl of the reaction mixture and incubation for 1 and 4 h at 37 °C. Plasma samples were then treated with 500 μl of a mixture of acetonitrile and ethanol (1:1), centrifuged (14,000 rpm, 6 min), filtered (0.22 μm) and degradation of the radiolabeled peptide was assessed in supernatant by RP-HPLC [24].

[1] = Biodistribution study in normal mice; format: in vivo; conditions: normal female NMRI mice, 1 μg i.v., mean ± SD, n = 4
Description: Normal female NMRI mice (20–30 g, Mazandaran animal center institute, Sari, Iran) were used in this study and randomly divided into 3 groups of 4. 100 μL of the solution containing 1 μg of the radiolabeled peptide was intravenously injected to the tail vein of each mouse. Mice were euthanized through intraperitoneal injection of ketamine and xylazine at 1, 4 and 24 h after injection. Blood was collected from the heart after deep anesthesia by a syringe which had been washed with heparin. Thereafter, organ samples including; lungs, stomach, liver, kidneys, bone, muscle, salivary glands, heart, spleen and intestines were removed, weighted and the radioactivity of each sample was measured. The tissue uptake of all organs except intestine was calculated as percent of injected dose per gram tissue (% ID/g) and for the intestine was calculated as % ID of the whole sample.

[2] = test system: SKOV3 human ovarian cancer xenografts; experiment: Biodistribution study in nude mice bearing SKOV3 xenografts; format: in vivo; conditions: female nude mice bearing SKOV3 xenograft, 1 μg i.v.; for Blood uptake / Bone uptake / Heart uptake / Intestine uptake / Kidney uptake / Liver uptake / Lung uptake / Muscle uptake / Spleen uptake / Stomach uptake / Tumor uptake / s.g & Th. (salivary gland and thyroid) uptake: mean ± SD
Description: The in vivo tumor-targeting of the radiolabeled peptide was studied in female nude mice bearing SKOV3 cancer xenografts. For tumor induction, 10 × 10^6 SKOV3 cells were subcutaneously injected into the right hind leg of nude mice and tumor was allowed to grow for about 4 weeks. In the day of experiment, the average tumor size was 0.63 ± 0.2 g and the mice were randomly divided into three groups of 4 mouse each. The mice were injected intravenously 1 μg of the radiolabelled peptide. At 1 h and 4 h after injection, the mice were sacrificed and the tumor and other tissues were dissected. Blocking experiment was also performed using three nude mice which were subjected to injection of the excess amount (500 μg/50 μl) of the unlabeled peptide 30 min before radioconjugate peptide injection.

[3] = 4 h p.i., blocked with excess unlabeled peptide (500 μg) 0.5 h before, n = 3

SMILES: CC[C@H](C)[C@H](NC(=O)[C@@H](NC(=O)[C@H](CC(N)=O)NC(=O)[C@H](CCC(N)=O)NC(=O)[C@@H]1CCCN1C(=O)[C@@H](NC(=O)[C@H](Cc1ccc(O)cc1)NC(=O)CNC(=O)[C@H](Cc1ccc(O)cc1)NC(=O)[C@H](Cc1c[nH]c2ccccc12)NC(=O)[C@H](Cc1c[nH]cn1)NC(=O)[C@H](Cc1ccc(O)cc1)NC(=O)[C@H](CO)NC(=O)[C@H](CO)NC(=O)[C@H](CO)NC(=O)c1ccc(NN)nc1)[C@@H](C)O)C(C)C)C(=O)O [^99mTc-tricine-HYNIC-SSS-GE11, metal not drawn]
- Stability in human serum (Stability in human serum): 96%
- Blood uptake ([1]; 1 h p.i.): 0.84 ± 0.04 % ID/g
- Bone uptake ([1]; 1 h p.i.): 0.97 ± 0.14 % ID/g
- Heart uptake ([1]; 1 h p.i.): 0.76 ± 0.16 % ID/g
- Kidney uptake ([1]; 1 h p.i.): 24.5 ± 1.7 % ID/g
- Liver uptake ([1]; 1 h p.i.): 2.88 ± 0.84 % ID/g
- Lung uptake ([1]; 1 h p.i.): 1.14 ± 0.63 % ID/g
- Muscle uptake ([1]; 1 h p.i.): 0.52 ± 0.14 % ID/g
- Spleen uptake ([1]; 1 h p.i.): 0.61 ± 0.14 % ID/g
- Stomach uptake ([1]; 1 h p.i.): 0.91 ± 0.27 % ID/g
- s.g & Th. (salivary gland and thyroid) uptake ([1]; 1 h p.i.): 0.87 ± 0.15 % ID/g
- Blood uptake ([1]; 4 h p.i.): less than 1 % ID/g
- Bone uptake ([1]; 4 h p.i.): 0.57 ± 0.2 % ID/g
- Heart uptake ([1]; 4 h p.i.): 0.44 ± 0.18 % ID/g
- Kidney uptake ([1]; 4 h p.i.): 17.5 ± 1.25 % ID/g
- Liver uptake ([1]; 4 h p.i.): 2.05 ± 0.39 % ID/g
- Lung uptake ([1]; 4 h p.i.): 0.68 ± 0.23 % ID/g
- Muscle uptake ([1]; 4 h p.i.): 0.23 ± 0.11 % ID/g
- Spleen uptake ([1]; 4 h p.i.): 0.41 ± 0.13 % ID/g
- Stomach uptake ([1]; 4 h p.i.): 0.57 ± 0.15 % ID/g
- s.g & Th. (salivary gland and thyroid) uptake ([1]; 4 h p.i.): 0.46 ± 0.22 % ID/g
- Blood uptake ([1]; 4 h p.i., listed as 99mTc-Tricine-HYNIC-SSS-GE11): 0.39 ± 0.11 % ID/g
- Blood uptake ([1]; 24 h p.i.): 0.18 ± 0.05 % ID/g
- Bone uptake ([1]; 24 h p.i.): 0.28 ± 0.05 % ID/g
- Heart uptake ([1]; 24 h p.i.): 0.40 ± 0.2 % ID/g
- Kidney uptake ([1]; 24 h p.i.): 3.55 ± 0.38 % ID/g
- Liver uptake ([1]; 24 h p.i.): 0.33 ± 0.069 % ID/g
- Lung uptake ([1]; 24 h p.i.): 0.47 ± 0.09 % ID/g
- Muscle uptake ([1]; 24 h p.i.): 0.19 ± 0.05 % ID/g
- Spleen uptake ([1]; 24 h p.i.): 0.20 ± 0.06 % ID/g
- Stomach uptake ([1]; 24 h p.i.): 0.32 ± 0.19 % ID/g
- s.g & Th. (salivary gland and thyroid) uptake ([1]; 24 h p.i.): 0.36 ± 0.12 % ID/g
- Blood uptake ([2]; 1 h p.i., n = 4): 2.53 ± 0.51 % ID/g
- Bone uptake ([2]; 1 h p.i., n = 4): 1.91 ± 0.53 % ID/g
- Heart uptake ([2]; 1 h p.i., n = 4): 2.40 ± 0.96 % ID/g
- Intestine uptake ([2]; 1 h p.i., n = 4): 8.38 ± 4.11 % ID/g
- Kidney uptake ([2]; 1 h p.i., n = 4): 64.95 ± 7.81 % ID/g
- Liver uptake ([2]; 1 h p.i., n = 4): 6.93 ± 0.95 % ID/g
- Lung uptake ([2]; 1 h p.i., n = 4): 3.39 ± 0.64 % ID/g
- Muscle uptake ([2]; 1 h p.i., n = 4): 0.99 ± 0.21 % ID/g
- Spleen uptake ([2]; 1 h p.i., n = 4): 2.86 ± 0.17 % ID/g
- Stomach uptake ([2]; 1 h p.i., n = 4): 2.65 ± 0.66 % ID/g
- Tumor uptake ([2]; 1 h p.i., n = 4): 2.33 ± 0.67 % ID/g
- s.g & Th. (salivary gland and thyroid) uptake ([2]; 1 h p.i., n = 4): 2.52 ± 0.82 % ID/g
- Tumor/Blood Ratio ([2]; 1 h p.i., n = 4): 0.92
- Tumor/Bone Ratio ([2]; 1 h p.i., n = 4): 1.2
- Tumor/Muscle Ratio ([2]; 1 h p.i., n = 4): 2.3
- Blood uptake [2, 3]: 0.99 ± 0.18 % ID/g
- Bone uptake [2, 3]: 1.01 ± 0.11 % ID/g
- Heart uptake [2, 3]: 0.65 ± 0.1 % ID/g
- Intestine uptake [2, 3]: 3.83 ± 2.1 % ID/g
- Kidney uptake [2, 3]: 42.10 ± 4.39 % ID/g
- Liver uptake [2, 3]: 3.28 ± 0.93 % ID/g
- Lung uptake [2, 3]: 1.24 ± 0.12 % ID/g
- Muscle uptake [2, 3]: 0.51 ± 0.07 % ID/g
- Spleen uptake [2, 3]: 0.83 ± 0.1 % ID/g
- Stomach uptake [2, 3]: 1.16 ± 0.11 % ID/g
- Tumor uptake [2, 3]: 0.93 ± 0.10 % ID/g
- s.g & Th. (salivary gland and thyroid) uptake [2, 3]: 0.89 ± 0.16 % ID/g
- Tumor/Blood Ratio [2, 3]: 0.96
- Tumor/Bone Ratio [2, 3]: 0.92
- Tumor/Muscle Ratio [2, 3]: 1.86
- Blood uptake ([2]; 4 h p.i., n = 4): 1.43 ± 0.18 % ID/g
- Bone uptake ([2]; 4 h p.i., n = 4): 1.29 ± 0.29 % ID/g
- Heart uptake ([2]; 4 h p.i., n = 4): 1.56 ± 0.37 % ID/g
- Intestine uptake ([2]; 4 h p.i., n = 4): 3.24 ± 0.9 % ID/g
- Kidney uptake ([2]; 4 h p.i., n = 4): 57.90 ± 0.49 % ID/g
- Liver uptake ([2]; 4 h p.i., n = 4): 4.64 ± 0.69 % ID/g
- Lung uptake ([2]; 4 h p.i., n = 4): 1.79 ± 0.34 % ID/g
- Muscle uptake ([2]; 4 h p.i., n = 4): 0.51 ± 0.14 % ID/g
- Spleen uptake ([2]; 4 h p.i., n = 4): 1.49 ± 0.32 % ID/g
- Stomach uptake ([2]; 4 h p.i., n = 4): 1.53 ± 0.16 % ID/g
- Tumor uptake ([2]; 4 h p.i., n = 4): 1.66 ± 0.41 % ID/g
- s.g & Th. (salivary gland and thyroid) uptake ([2]; 4 h p.i., n = 4): 1.80 ± 0.21 % ID/g
- Tumor/Blood Ratio ([2]; 4 h p.i., n = 4): 1.17
- Tumor/Bone Ratio ([2]; 4 h p.i., n = 4): 1.3
- Tumor/Muscle Ratio ([2]; 4 h p.i., n = 4): 3.42
